The assay concerns the target plasma purified human complement protein C3 (human) (UniProt P01024). Nature of the assay: cell-based or functional assay.

From patent US20240018502A1 come the findings set out here.

Positions count from the first letter of the chain named. In names and notes the source's numbering stands.

Sequence of plasma purified human complement protein C3 (human) (P01024 23-667, chain 1 of 2): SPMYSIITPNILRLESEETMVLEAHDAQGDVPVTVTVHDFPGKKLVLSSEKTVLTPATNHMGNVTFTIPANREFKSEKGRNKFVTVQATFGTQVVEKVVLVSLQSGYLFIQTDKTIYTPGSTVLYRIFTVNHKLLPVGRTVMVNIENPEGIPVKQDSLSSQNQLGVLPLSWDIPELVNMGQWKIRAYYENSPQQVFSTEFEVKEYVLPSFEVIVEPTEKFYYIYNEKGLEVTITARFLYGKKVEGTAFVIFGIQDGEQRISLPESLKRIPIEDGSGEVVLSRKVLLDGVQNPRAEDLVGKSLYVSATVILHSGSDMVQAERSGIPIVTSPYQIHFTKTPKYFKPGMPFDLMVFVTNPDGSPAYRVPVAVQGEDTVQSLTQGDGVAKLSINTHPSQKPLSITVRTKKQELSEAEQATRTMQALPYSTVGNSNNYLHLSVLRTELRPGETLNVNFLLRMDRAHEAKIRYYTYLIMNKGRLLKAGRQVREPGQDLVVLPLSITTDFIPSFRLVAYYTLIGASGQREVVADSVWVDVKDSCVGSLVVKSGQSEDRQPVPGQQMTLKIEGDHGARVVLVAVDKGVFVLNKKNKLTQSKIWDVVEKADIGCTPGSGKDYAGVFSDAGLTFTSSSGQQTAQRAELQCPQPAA
Sequence of plasma purified human complement protein C3 (human) (P01024 672-1663, chain 2 of 2): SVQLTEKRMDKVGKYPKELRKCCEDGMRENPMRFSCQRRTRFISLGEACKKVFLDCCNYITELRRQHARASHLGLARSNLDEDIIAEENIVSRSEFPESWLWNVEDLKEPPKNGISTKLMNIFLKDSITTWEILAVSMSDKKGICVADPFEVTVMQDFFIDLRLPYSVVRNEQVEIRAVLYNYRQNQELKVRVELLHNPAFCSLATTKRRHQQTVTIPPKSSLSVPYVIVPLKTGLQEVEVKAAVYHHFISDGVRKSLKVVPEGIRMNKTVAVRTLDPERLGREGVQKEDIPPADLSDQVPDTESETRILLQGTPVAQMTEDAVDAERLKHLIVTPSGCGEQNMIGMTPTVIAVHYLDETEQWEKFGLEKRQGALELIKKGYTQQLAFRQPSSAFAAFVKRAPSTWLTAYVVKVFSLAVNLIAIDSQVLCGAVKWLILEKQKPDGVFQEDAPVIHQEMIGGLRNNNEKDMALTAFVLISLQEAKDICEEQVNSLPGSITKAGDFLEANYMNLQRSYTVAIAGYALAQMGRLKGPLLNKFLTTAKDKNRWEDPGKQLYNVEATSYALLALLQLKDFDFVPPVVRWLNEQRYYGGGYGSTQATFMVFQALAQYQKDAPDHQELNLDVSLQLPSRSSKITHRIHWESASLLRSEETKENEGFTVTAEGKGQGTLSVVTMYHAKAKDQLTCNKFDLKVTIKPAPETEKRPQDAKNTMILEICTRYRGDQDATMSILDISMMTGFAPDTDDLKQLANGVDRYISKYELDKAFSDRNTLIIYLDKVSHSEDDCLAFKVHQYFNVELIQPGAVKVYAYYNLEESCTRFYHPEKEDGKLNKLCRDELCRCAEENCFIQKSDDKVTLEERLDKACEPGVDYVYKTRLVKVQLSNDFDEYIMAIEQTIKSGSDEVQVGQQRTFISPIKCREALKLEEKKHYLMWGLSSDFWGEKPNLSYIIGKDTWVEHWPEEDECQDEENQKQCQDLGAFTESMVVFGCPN

B1: MTSP-1 I41R/F97W/F99L/C122S/G151N/Q192G (enzyme)
chain: VVGGTDADEGEWPWQVSLHALGQGHRCGASLISPNWLVSAAHCYIDDRGFRYSDPTQWTAFLGLHDQSQRSAPGVQERRLKRIISHPFFNDWTLDYDIALLELEKPAEYSSMVRPISLPDASHVFPAGKAIWVTGWGHTQYGGTNALILQKGEIRVINQTTCENLLPQQITPRMMCVGFLSGGVDSCGGDSGGPLSSVEADGRIFQAGVVSWGDGCAQRNKPGVYTRLPLFRDWIKENTGV
In turn, B1 displayed an EC50 of hC3 cleavage of 97.3 nM.

B2: MTSP-1 S90T/D96A/ins97aE/F97T/T98G/F99L/C122S/Q175L/Q192D (enzyme)
chain: VVGGTDADEGEWPWQVSLHALGQGHICGASLISPNWLVSAAHCYIDDRGFRYSDPTQWTAFLGLHDQSQRSAPGVQERRLKRIITHPFFNATEGLDYDIALLELEKPAEYSSMVRPISLPDASHVFPAGKAIWVTGWGHTQYGGTGALILQKGEIRVINQTTCENLLPQLITPRMMCVGFLSGGVDSCDGDSGGPLSSVEADGRIFQAGVVSWGDGCAQRNKPGVYTRLPLFRDWIKENTGV
Take B2: the EC50 of hC3 cleavage turned out to be 280 nM.

B3: MTSP-1 I41R/ins97aE/F97T/T98G/F99L/C122S/G151S/Q175L/Q192E (enzyme)
chain: B2 chain with I26R, T85S, A91D, G146S, D189E
Molecule B3 showed an EC50 of hC3 cleavage of 274 nM.

B4: MTSP-1 I41R/Y59F/G60dS/R84H/ins97aE/F97T/T98G/F99L/C122S/Q175L/Q192E/V212I (enzyme)
chain: B2 chain with I26R, Y44F, G49S, R79H, T85S, A91D, D189E, V210I
As for B4, the EC50 of hC3 cleavage turned out to be 143 nM.

B5: MTSP-1 I41R/Y59F/ins97aE/F97T/T98G/F99L/C122S/Q175L/Q192D (enzyme)
chain: B2 chain with I26R, Y44F, T85S, A91D
In turn, B5 registered an EC50 of hC3 cleavage of 288 nM.

B6: MTSP-1 ins97aE/F97T/T98G/F99L/C122S/Q175L/Q192E/Q209L (enzyme)
chain: B2 chain with T85S, A91D, D189E, Q207L
Turning to B6, the EC50 of hC3 cleavage is 383 nM.

B7: MTSP-1 Y59F/ins97aE/F97T/T98G/F99L/C122S/L153Q/Q175L/Q192E (enzyme)
chain: B2 chain with Y44F, T85S, A91D, L148Q, D189E
B7 gave an EC50 of hC3 cleavage of 237 nM.

B8: MTSP-1 E24K/ins97aE/F97T/T98G/F99L/C122S/A152S/Q175L/Q192D (enzyme)
chain: B2 chain with E9K, T85S, A91D, A147S
In the case of B8, the EC50 of hC3 cleavage was 291 nM.

B9: MTSP-1 D96V/ins97aE/F97T/T98G/F99L/C122S/Q175L/Q192D (enzyme)
chain: B2 chain with T85S, A91V
Turning to B9, the EC50 of hC3 cleavage turned out to be 258 nM.

B10: MTSP-1 Y59F/ins97aE/F97T/T98G/F99L/C122S/Q175L/Q192E (enzyme)
chain: B2 chain with Y44F, T85S, A91D, D189E
In turn, B10 gave an EC50 of hC3 cleavage of 341 nM.

B11: MTSP-1 ins97aE/F97T/T98G/F99L/C122S/L153Q/Q175L/Q192D (enzyme)
chain: B2 chain with T85S, A91D, L148Q
On to B11, for which the EC50 of hC3 cleavage was 332 nM.

B12: MTSP-1 Y59F/F97T/ins97aE/T98G/F99L/C122S/Q175L/Q192D (enzyme)
chain: B2 chain with Y44F, T85S, A91D
Molecule B12 gave an EC50 of hC3 cleavage of 289 nM.

B13: MTSP-1 ins97aE/F97T/T98G/F99L/C122S/I136M/L155M/N170D/Q175L/Q192E (enzyme)
chain: B2 chain with T85S, A91D, I132M, L150M, N165D, D189E
Molecule B13 came in with an EC50 of hC3 cleavage of 429 nM.

B14: MTSP-1 I41R/ins97aE/F97T/T98G/F99L/A112V/C122S/Q175L/Q192E (enzyme)
chain: B2 chain with I26R, T85S, A91D, A108V, D189E
As for B14, the EC50 of hC3 cleavage came out at 288 nM.

B15: MTSP-1 I41R/Y59F/ins97aE/F97T/T98G/F99L/C122S/L153Q/Q175L/Q192E (enzyme)
chain: B2 chain with I26R, Y44F, T85S, A91D, L148Q, D189E
B15 yielded an EC50 of hC3 cleavage of 253 nM.

B16: MTSP-1 Y59F/D96V/ins97aE/F97T/T98G/F99L/C122S/Q175L/Q192E (enzyme)
chain: B2 chain with Y44F, T85S, A91V, D189E
Molecule B16 returned an EC50 of hC3 cleavage of 293 nM.

B17: MTSP-1 Y59F/G60dS/R84H/ins97aE/F97T/T98G/F99L/C122S/Q175L/Q192E/V212I (enzyme)
chain: B2 chain with Y44F, G49S, R79H, T85S, A91D, D189E, V210I
Molecule B17 returned an EC50 of hC3 cleavage of 102 nM.
